± gives the uncertainty stated by the source.
Test: amyloid nucleation score (Sup35N fusion, yeast selection) (log enrichment); library NNK1; higher = more nucleation; inactive = no reads after selection
In short: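 The nucleation score, computed with DiMSum, is the log enrichment of output over input reads, centred on the mode score of non-aggregating sequences. Sequences with under 100 input reads were dropped. Reads were generated by Illumina sequencing of plasmid inserts from psi-negative yeast with Sup35N fused to peptides of 20 random codons, induced with 100 μM copper sulfate for 24 hours and grown 7 days at 30°C on medium lacking adenine and uracil.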

Row | Substance | amyloid nucleation score
1 | FNSFCFQNVTLW | inactive
2 | HEGPCKRNCTGVLLRSARRH | -0.049 ± 0.26
3 | LKAGFM | -0.102 ± 0.28
4 | TWLYEIHTILMIGGIMRKRG | 0.734 ± 0.45
5 | CNLNAGGKRWADRT | 0.3 ± 0.85
6 | DLCFCTR | -1.37 ± 2.7
7 | CYAFLDWAYVSEG | 0.114 ± 0.28
8 | DTNTSIMHTIPRVGLNGCRR | 10.02 ± 0.051
9 | SQLGMAWLSHGVDLPIRFYK | 0.241 ± 1.4
10 | SMSHGWGLLDFLWADCWWPK | -0.031 ± 1
11 | RYSCY | 0.152 ± 0.6
12 | SEWDFGDCENFKVSYLVVTQ | -0.408 ± 0.4
13 | GSARYCSYCWRTSDITWIIH | 1.71 ± 0.13
14 | PSFHICL | -0.489 ± 0.41
15 | LIVLWNCSADPDGFMWCSKC | inactive
16 | GACLWGT | 0.338 ± 0.29
17 | YVGIPQCGDLKRRPLA | 0.116 ± 1.1
18 | MYRMFRSFKFEWYCELWVLS | -0.125 ± 0.5
19 | VYYLGVKAFLFNSSF | 0.824 ± 0.54
20 | CRLSNGV | -0.392 ± 0.31
21 | RMFWANLQVSVNFGDKRVKY | 4.13 ± 0.091
22 | SHLCTMIGTCFL | 1.98 ± 0.13
23 | NLTANVLKVMSRHCNGFWIF | 0.29 ± 0.46

Row | Substance | amyloid nucleation score
24 | GDYYACGPTCGSRAAFPGVG | -0.383 ± 0.59
25 | IYLCCADFARIVMVTSTRWL | 0.052 ± 0.5
26 | AGWKTRHQGRVIVLGFWEGW | 0.059 ± 0.41
27 | VAADMEARYIFCYIINVDAR | 4.98 ± 0.083
28 | KVQYLFCNYLIKSYMMVQCN | 0.477 ± 0.39
29 | GQFAFNMKNSLMNVVGVILE | inactive
30 | RKYEGGRAKVWHGPCSVS | 1.07 ± 0.76
31 | TTFTRVTLICSPPVQAKLGR | 0.399 ± 0.27
32 | TAAGSNQSEAFFFTNIISE | 0.078 ± 0.84
33 | FLLLAC | 0.197 ± 0.9
34 | MIVRSVILNDCWAGGACLHF | 6.936 ± 0.047
35 | SPLNKMVTFVAVLAFVFVLV | 0.114 ± 0.66
36 | GVVGVNSADLFNGKIVIKFS | 1.81 ± 0.2
37 | FVVAVGLIVFD | 0.027 ± 1.7
38 | YMVYILSVCDLRFLWTRSGG | -0.053 ± 0.49
39 | VMRNYFRDPDRPRLKWIYLS | 7.095 ± 0.048
40 | RQIGTAFSDYLHGWCVFSFR | 3.88 ± 0.11
41 | RWPRCYYNLGKCTDISLTWS | 2.56 ± 0.18
42 | IFGGLH | 0.631 ± 0.5
43 | VVELASLEGGHELTNWVNLV | 0.231 ± 0.59
44 | LDCDSSLGRN | 0.722 ± 0.39
45 | NCLCIMSPCLLPCWEWVSYR | 5.834 ± 0.055
46 | DRRCLRYSLNCLLFRSIYYN | 0.652 ± 1

Row | Substance | amyloid nucleation score
47 | LWHAYAKSGYPFGSMVGVHA | 0.703 ± 0.4
48 | VLGISLSERNLKGIV | 0.232 ± 0.32
49 | DMEQAICEPSLFKIVGDNNL | -0.186 ± 0.86
50 | LAVERGHCIQVRGLKCLIES | 1.66 ± 0.47
51 | VAFRLTIGCVVSVSINVAGV | 1.19 ± 0.62
52 | RVLCICFEYINHRAGGSKSF | -0.08 ± 0.95
53 | WGFESFSAWATMCERSRWHR | 0.428 ± 0.55
54 | IISVTVFFKCARLEILNR | -0.64 ± 0.57
55 | PWYKSLSRPSGGKTVLLRNM | -0.113 ± 0.43
56 | LYAYDWLHEGNSSHKSDLVM | -0.791 ± 0.77
57 | PGEVRW | -0.385 ± 1.9
58 | RVPCCGSYKGVFYEFTFSRG | 0.957 ± 0.49
59 | SSDMGFFARYLSLNH | 0.512 ± 0.55
60 | CSSMQFVACLNSAYGSSTAM | 0.027 ± 0.76
61 | VNWVLIERWVVS | -1.13 ± 0.85
62 | RSDNSCRRLLEDWRSWRRAV | inactive
63 | AGGQGRLSRKVYSTMWVESL | 1.17 ± 0.21
64 | VLKPSLGGCLSHSVMLKLSD | inactive
65 | DTQESSNIVRSLPRLVGLLG | 0.248 ± 0.43
66 | PREVVAQKHCSLLQFDLLYS | -0.556 ± 0.48
67 | CSLTCVSWHMGSF | 2.15 ± 0.32
68 | VSYKCSVRFLCIGRLRGVLF | -0.197 ± 0.28
69 | RRLSMIMLFNPLSIWCFAQS | 0.408 ± 0.5

Source: the supplement of paper PMC12042874
